Laboratory results taken from patent CN113929780A.

How the values were obtained:
[1] = target: 人Claudin18.2 (human Claudin18.2, 密蛋白18.2) (human) (UniProt P56856); assay: relative binding activity against the control antibody, after strong-acid stress
[2] = target: 人Claudin18.2 (human Claudin18.2, 密蛋白18.2) (human) (UniProt P56856); assay: relative binding activity against the control antibody, after repeated freezing and thawing

| 相对结合活性 (relative to the control antibody BY0-0) [1] [%] | 相对结合活性 (relative to the control antibody BY0-0) [2] [%] | Binder |
| --- | --- | --- |
| 80 | – | BY6-3 (antibody, IgG1, V domains shown) VH: QVQLVQSGSELKKPGASVKISCKASGYSFTNYGMNWVRQAPGQGLKWMGWINTNTGEPTYAEEFKGRFVFSLDTSVSTAYLQISSLKAEDTAVYYCARLGFGNAMDYWGQGTLVTVSS VL: DIVMTQSPDSLAVSLGERATMNCKSSQTLLNSGNQKNYLTWYQQKPGQPPKLLIYWATTRESGVPDRFSGSGSGTDFTLTISSLQAEDVAVYYCQNDYTYPLTFGAGTKLEIK |
| 80 | – | BY6-4 (antibody, IgG1, V domains shown) VH: QVQLVQSGSELKKPGASVKISCKASGYSFTNYGMNWVRQAPGQGLKWMGWINTNTGEPTYAEEFKGRFVFSLDTSVSTAYLQISSLKAEDTAVYYCARLGFGNAMDYWGQGTLVTVSS VL: DIVMTQSPDSLAVSLGERATMNCKSSQTLLNSGNNKNYLTWYQQKPGQPPKLLIYWATTRESGVPDRFSGSGSGTDFTLTISSLQAEDVAVYYCQNDYSYPLTFGAGTKLEIK |
| – | > 80 | BY6-1 (antibody, IgG1, V domains shown) VH: QVQLVQSGSELKKPGASVKISCKASGYSFTNYGMNWVRQAPGQGLKWMGWINTNTGEPTYAEEFKGRFVFSLDTSVSTAYLQISSLKAEDTAVYYCARLGFGNAMDYWGQGTLVTVSS VL: DIVMTQSPDSLAVSLGERATMNCKSSQTLLNSGNQKNYLTWYQQKPGQPPKLLIYWATTRESGVPDRFSGSGSGTDFTLTISSLQAEDVAVYYCQNDYSYPLTFGAGTKLEIK |
